{"source": "patent EP2718311B1", "about": "(TLA Targeted Immunotherapies AB, dated 2018)", "key": {"hCCR5 (human) [1]": {"biological_target": "hCCR5 (human) (UniProt P51681)", "sequence (P51681 whole entry)": "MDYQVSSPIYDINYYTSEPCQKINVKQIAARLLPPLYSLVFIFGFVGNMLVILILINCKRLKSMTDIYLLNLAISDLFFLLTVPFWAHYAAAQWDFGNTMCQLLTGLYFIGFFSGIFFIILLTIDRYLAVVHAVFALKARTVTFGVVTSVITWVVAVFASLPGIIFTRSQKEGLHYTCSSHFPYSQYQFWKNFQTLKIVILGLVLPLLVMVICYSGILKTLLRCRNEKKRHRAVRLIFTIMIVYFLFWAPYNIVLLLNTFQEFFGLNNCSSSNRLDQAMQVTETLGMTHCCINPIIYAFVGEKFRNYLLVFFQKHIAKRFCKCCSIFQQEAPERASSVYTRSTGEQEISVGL", "test": "blood of a healthy donor passed through a column of biotinylated RANTES coupled matrix; flow cytometry for CCR1, 3 and 5-expressing cells"}, "[2]": {"biological_target": "T1, CCR1 on human peripheral blood cells (human) (UniProt P32246)", "T1 sequence (looked up)": "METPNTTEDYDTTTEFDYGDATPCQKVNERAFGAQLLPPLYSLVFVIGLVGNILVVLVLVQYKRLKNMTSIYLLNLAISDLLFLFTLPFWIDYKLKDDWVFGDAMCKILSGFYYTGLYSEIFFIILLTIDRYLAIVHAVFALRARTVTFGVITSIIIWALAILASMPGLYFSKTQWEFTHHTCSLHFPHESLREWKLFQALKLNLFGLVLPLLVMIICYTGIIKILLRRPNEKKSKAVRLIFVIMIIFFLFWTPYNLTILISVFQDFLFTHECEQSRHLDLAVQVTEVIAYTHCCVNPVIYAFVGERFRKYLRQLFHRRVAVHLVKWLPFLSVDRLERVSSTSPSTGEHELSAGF", "test": "blood of a healthy donor passed through a column of biotinylated RANTES coupled matrix; flow cytometry for CCR1, 3 and 5-expressing cells"}, "hCCR3 (human) [3]": {"biological_target": "hCCR3 (human) (UniProt P51677)", "sequence (P51677 whole entry)": "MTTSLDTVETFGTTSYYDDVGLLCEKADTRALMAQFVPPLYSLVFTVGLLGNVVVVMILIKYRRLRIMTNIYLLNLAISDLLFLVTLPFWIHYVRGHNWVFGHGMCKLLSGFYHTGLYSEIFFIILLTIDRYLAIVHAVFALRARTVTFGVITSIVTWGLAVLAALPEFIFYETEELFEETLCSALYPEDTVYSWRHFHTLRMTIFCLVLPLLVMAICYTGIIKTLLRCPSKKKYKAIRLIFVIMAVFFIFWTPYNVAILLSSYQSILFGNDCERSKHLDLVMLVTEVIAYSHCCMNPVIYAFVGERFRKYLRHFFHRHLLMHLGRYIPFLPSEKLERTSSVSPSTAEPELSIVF", "test": "blood of a healthy donor passed through a column of biotinylated RANTES coupled matrix; flow cytometry for CCR1, 3 and 5-expressing cells"}, "hCCR5 (human) [4]": {"biological_target": "hCCR5 (human) (UniProt P51681)", "test": "cell-based or functional assay"}, "hCCR9 (human)": {"biological_target": "hCCR9 (human) (UniProt P51686)", "sequence (P51686 whole entry)": "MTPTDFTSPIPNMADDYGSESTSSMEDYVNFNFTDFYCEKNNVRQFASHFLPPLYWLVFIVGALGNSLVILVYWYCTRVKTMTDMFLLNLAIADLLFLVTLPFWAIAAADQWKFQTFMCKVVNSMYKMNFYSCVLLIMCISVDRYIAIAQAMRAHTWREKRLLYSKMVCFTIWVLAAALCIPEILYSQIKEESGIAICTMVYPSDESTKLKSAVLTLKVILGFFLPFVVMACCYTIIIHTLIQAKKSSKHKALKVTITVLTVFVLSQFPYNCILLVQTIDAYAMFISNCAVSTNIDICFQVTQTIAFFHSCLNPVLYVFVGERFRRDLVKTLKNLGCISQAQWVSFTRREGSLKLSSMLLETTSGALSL", "test": "cell-based or functional assay"}, "[5]": {"biological_target": "CCR2 on human peripheral blood cells (monocytes, T cells) (human) (UniProt P41597)", "test": "blood of three healthy donors passed through a column of bMCP-1 coupled matrix; flow cytometry before and after"}, "[6]": {"biological_target": "CCR2 on human peripheral blood cells (monocytes, T cells) (human) (UniProt P41597)", "test": "flow cytometry, labelled MCP-1 on fixed blood leukocytes of healthy donors, 30 min at 4 °C"}, "hCXCR3 (human)": {"biological_target": "hCXCR3 (human) (UniProt P49682)", "sequence (P49682 whole entry)": "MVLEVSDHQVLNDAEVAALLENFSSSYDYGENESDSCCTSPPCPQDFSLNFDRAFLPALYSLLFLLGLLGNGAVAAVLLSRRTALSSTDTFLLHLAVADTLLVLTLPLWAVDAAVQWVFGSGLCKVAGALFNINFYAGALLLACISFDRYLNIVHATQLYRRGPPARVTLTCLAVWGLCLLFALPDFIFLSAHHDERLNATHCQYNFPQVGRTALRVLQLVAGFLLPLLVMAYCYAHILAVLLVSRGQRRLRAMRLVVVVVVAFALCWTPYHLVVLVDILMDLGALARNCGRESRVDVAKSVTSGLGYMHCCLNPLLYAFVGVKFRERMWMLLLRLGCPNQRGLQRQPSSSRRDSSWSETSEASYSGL", "test": "cell-based or functional assay"}, "hCCR6 (human)": {"biological_target": "hCCR6 (human) (UniProt P51684)", "sequence (P51684 whole entry)": "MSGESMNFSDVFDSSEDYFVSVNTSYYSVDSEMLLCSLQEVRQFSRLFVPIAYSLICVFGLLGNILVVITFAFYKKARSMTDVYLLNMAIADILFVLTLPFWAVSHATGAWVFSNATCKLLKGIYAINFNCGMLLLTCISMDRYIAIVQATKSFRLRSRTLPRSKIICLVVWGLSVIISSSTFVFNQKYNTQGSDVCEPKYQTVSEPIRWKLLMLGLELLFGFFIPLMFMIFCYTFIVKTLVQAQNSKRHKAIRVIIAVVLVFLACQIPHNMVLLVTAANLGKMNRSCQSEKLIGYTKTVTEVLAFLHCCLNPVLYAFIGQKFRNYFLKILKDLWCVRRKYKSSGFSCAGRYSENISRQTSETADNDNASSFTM", "test": "cell-based or functional assay"}, "hCCR3 (human) [7]": {"biological_target": "hCCR3 (human) (UniProt P51677)", "test": "cell-based or functional assay"}, "hCCR2b": {"biological_target": "T2, hCCR2b (human, UniProt P41597 1-374)", "T2 chain": "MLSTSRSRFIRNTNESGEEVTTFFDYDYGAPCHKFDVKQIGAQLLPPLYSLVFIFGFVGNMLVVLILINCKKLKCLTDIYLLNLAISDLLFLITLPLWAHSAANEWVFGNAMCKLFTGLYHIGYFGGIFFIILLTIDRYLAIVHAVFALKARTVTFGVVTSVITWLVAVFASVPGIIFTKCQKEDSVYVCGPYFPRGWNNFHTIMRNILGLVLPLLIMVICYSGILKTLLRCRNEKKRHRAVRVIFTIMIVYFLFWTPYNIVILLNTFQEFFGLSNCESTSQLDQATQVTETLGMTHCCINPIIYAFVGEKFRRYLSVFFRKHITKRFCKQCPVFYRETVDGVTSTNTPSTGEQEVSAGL", "test": "cell-based or functional assay"}}}
{"molecule": "biotinRANTES (CCL5) (from UniProt P13501 24-91) (ligand)", "values": [{"measurement": "reduction of chemokine receptor-expressing cells by the column", "setting": "hCCR5 (human) [1]", "value": 20, "unit": "%"}, {"measurement": "reduction of chemokine receptor-expressing cells by the column", "setting": "[2]", "value": 20, "unit": "%"}, {"measurement": "reduction of chemokine receptor-expressing cells by the column", "setting": "hCCR3 (human) [3]", "value": 20, "unit": "%"}, {"measurement": "agonist activity in an Aequorin assay, EC50", "setting": "hCCR5 (human) [4]", "value": 0.5, "unit": "nM"}]}
{"molecule": "biotinTECK(Met to Nleu substitution) (from UniProt O15444 25-97) (ligand)", "values": [{"measurement": "agonist activity in an Aequorin assay, EC50", "setting": "hCCR9 (human)", "value": 63.6, "unit": "nM"}]}
{"molecule": "biotinylated MCP-1 (from UniProt P13500 24-99) (ligand)", "values": [{"measurement": "remaining levels of monocytes after column passage", "setting": "[5]", "value": "20 to 30", "unit": "%"}, {"measurement": "percent of monocytes that bound the chemokine", "setting": "[6]", "value": 90, "unit": "%"}]}
{"molecule": "recombinant native IP-10 (from UniProt P02778 22-98) (ligand)", "values": [{"measurement": "agonist activity in an Aequorin assay, EC50", "setting": "hCXCR3 (human)", "value": 4.4, "unit": "nM"}]}
{"molecule": "recombinant native ITAC (from UniProt O14625 22-94) (ligand)", "values": [{"measurement": "agonist activity in an Aequorin assay, EC50", "setting": "hCXCR3 (human)", "value": 0.7, "unit": "nM"}]}
{"molecule": "recombinant native MIP-3α (from UniProt P78556 27-96) (ligand)", "values": [{"measurement": "agonist activity in an Aequorin assay, EC50", "setting": "hCCR6 (human)", "value": 1, "unit": "nM"}]}
{"molecule": "recombinant native TECK (from UniProt O15444 24-150) (ligand)", "values": [{"measurement": "agonist activity in an Aequorin assay, EC50", "setting": "hCCR9 (human)", "value": 67.9, "unit": "nM"}]}
{"molecule": "recombinant native eotaxin (from UniProt P51671 24-97) (ligand)", "values": [{"measurement": "activity in an Aequorin assay (agonist), EC50", "setting": "hCCR3 (human) [7]", "value": 10.7, "unit": "nM"}]}
{"molecule": "recombinant native MCP-2 (ligand, human, UniProt P80075 24-99, looked up) QPDSVSIPITCCFNVINRKIPIQRLESYTRITNIQCPKEAVIFKTKRGKEVCADPKERWVRDSMKHLDQIFQNLKP", "values": [{"measurement": "activity in an Aequorin assay (partial agonist), EC50", "setting": "hCCR2b", "value": 23.5, "unit": "nM"}]}
